B1: human CBS deletion mutant Δ551 (enzyme)
chain: MPSETPQAEVGPTGCPHRSGPHSAKGSLEKGSPEDKEAKEPLWIRPDAPSRCTWQLGRPASESPHHHTAPAKSPKILPDILKKIGDTPMVRINKIGKKFGLKCELLAKCEFFNAGGSVKDRISLRMIEDAERDGTLKPGDTIIEPTSGNTGIGLALAAAVRGYRCIIVMPEKMSSEKVDVLRALGAEIVRTPTNARFDSPESHVGVAWRLKNEIPNSHILDQYRNASNPLAHYDTTADEILQQCDGKLDMLVASVGTGGTITGIARKLKEKCPGCRIIGVDPEGSILAEPEELNQTEQTTYEVEGIGYDFIPTVLDRTVVDKWFKSNDEEAFTFARMLIAQEGLLCGGSAGSTVAVAVKAAQELQEGQRCVVILPDSVRNYMTKFLSDRWMLQKGFLKEEDLTEKKPWWWHLRVQELGLSAPLTVLPTITCGHTIEILREKGFDQAPVVDEAGVILGMVTLGNMLSSLLAGKVQPSDQVGKVIYKQFKQIRLTDTLGRLSHILEMDHFALVVHEQIQYHSTGKSSQRQMVFGVVTAIDLLNFVAAQERDQ
notes: Lacks the C-terminal lysine; No fusion partner, E. coli lysate; Reported as a tetramer; also called pKK CBS Δ551
B2: human CBS deletion mutant Δ489-551 (enzyme)
chain: MPSETPQAEVGPTGCPHRSGPHSAKGSLEKGSPEDKEAKEPLWIRPDAPSRCTWQLGRPASESPHHHTAPAKSPKILPDILKKIGDTPMVRINKIGKKFGLKCELLAKCEFFNAGGSVKDRISLRMIEDAERDGTLKPGDTIIEPTSGNTGIGLALAAAVRGYRCIIVMPEKMSSEKVDVLRALGAEIVRTPTNARFDSPESHVGVAWRLKNEIPNSHILDQYRNASNPLAHYDTTADEILQQCDGKLDMLVASVGTGGTITGIARKLKEKCPGCRIIGVDPEGSILAEPEELNQTEQTTYEVEGIGYDFIPTVLDRTVVDKWFKSNDEEAFTFARMLIAQEGLLCGGSAGSTVAVAVKAAQELQEGQRCVVILPDSVRNYMTKFLSDRWMLQKGFLKEEDLTEKKPWWWHLRVQELGLSAPLTVLPTITCGHTIEILREKGFDQAPVVDEAGVILGMVTLGNMLSSLLAGKVQPSDQVGKVIYKQFK
notes: No fusion partner, E. coli lysate; Reported as a dimer
B3: human CBS deletion mutant Δ497-551 (enzyme)
chain: MPSETPQAEVGPTGCPHRSGPHSAKGSLEKGSPEDKEAKEPLWIRPDAPSRCTWQLGRPASESPHHHTAPAKSPKILPDILKKIGDTPMVRINKIGKKFGLKCELLAKCEFFNAGGSVKDRISLRMIEDAERDGTLKPGDTIIEPTSGNTGIGLALAAAVRGYRCIIVMPEKMSSEKVDVLRALGAEIVRTPTNARFDSPESHVGVAWRLKNEIPNSHILDQYRNASNPLAHYDTTADEILQQCDGKLDMLVASVGTGGTITGIARKLKEKCPGCRIIGVDPEGSILAEPEELNQTEQTTYEVEGIGYDFIPTVLDRTVVDKWFKSNDEEAFTFARMLIAQEGLLCGGSAGSTVAVAVKAAQELQEGQRCVVILPDSVRNYMTKFLSDRWMLQKGFLKEEDLTEKKPWWWHLRVQELGLSAPLTVLPTITCGHTIEILREKGFDQAPVVDEAGVILGMVTLGNMLSSLLAGKVQPSDQVGKVIYKQFKQIRLTDTL
notes: as for B2
B4: human CBS deletion mutant Δ442-551 (enzyme)
chain: MPSETPQAEVGPTGCPHRSGPHSAKGSLEKGSPEDKEAKEPLWIRPDAPSRCTWQLGRPASESPHHHTAPAKSPKILPDILKKIGDTPMVRINKIGKKFGLKCELLAKCEFFNAGGSVKDRISLRMIEDAERDGTLKPGDTIIEPTSGNTGIGLALAAAVRGYRCIIVMPEKMSSEKVDVLRALGAEIVRTPTNARFDSPESHVGVAWRLKNEIPNSHILDQYRNASNPLAHYDTTADEILQQCDGKLDMLVASVGTGGTITGIARKLKEKCPGCRIIGVDPEGSILAEPEELNQTEQTTYEVEGIGYDFIPTVLDRTVVDKWFKSNDEEAFTFARMLIAQEGLLCGGSAGSTVAVAVKAAQELQEGQRCVVILPDSVRNYMTKFLSDRWMLQKGFLKEEDLTEKKPWWWHLRVQELGLSAPLTVLPTITCGHTIEILREK
notes: as for B2
B5: human CBS double deletion mutant Δ1-70 Δ401-551 (expressed without fusion partner) (enzyme)
chain: AKSPKILPDILKKIGDTPMVRINKIGKKFGLKCELLAKCEFFNAGGSVKDRISLRMIEDAERDGTLKPGDTIIEPTSGNTGIGLALAAAVRGYRCIIVMPEKMSSEKVDVLRALGAEIVRTPTNARFDSPESHVGVAWRLKNEIPNSHILDQYRNASNPLAHYDTTADEILQQCDGKLDMLVASVGTGGTITGIARKLKEKCPGCRIIGVDPEGSILAEPEELNQTEQTTYEVEGIGYDFIPTVLDRTVVDKWFKSNDEEAFTFARMLIAQEGLLCGGSAGSTVAVAVKAAQELQEGQRCVVILPDSVRNYMTKFLSDRWMLQKGFLKEE
notes: pKK construct; E. coli lysate; Reported as a dimer; also called CBS DD
B6: human CBS deletion mutant Δ1-39 (enzyme)
chain: EPLWIRPDAPSRCTWQLGRPASESPHHHTAPAKSPKILPDILKKIGDTPMVRINKIGKKFGLKCELLAKCEFFNAGGSVKDRISLRMIEDAERDGTLKPGDTIIEPTSGNTGIGLALAAAVRGYRCIIVMPEKMSSEKVDVLRALGAEIVRTPTNARFDSPESHVGVAWRLKNEIPNSHILDQYRNASNPLAHYDTTADEILQQCDGKLDMLVASVGTGGTITGIARKLKEKCPGCRIIGVDPEGSILAEPEELNQTEQTTYEVEGIGYDFIPTVLDRTVVDKWFKSNDEEAFTFARMLIAQEGLLCGGSAGSTVAVAVKAAQELQEGQRCVVILPDSVRNYMTKFLSDRWMLQKGFLKEEDLTEKKPWWWHLRVQELGLSAPLTVLPTITCGHTIEILREKGFDQAPVVDEAGVILGMVTLGNMLSSLLAGKVQPSDQVGKVIYKQFKQIRLTDTLGRLSHILEMDHFALVVHEQIQYHSTGKSSQRQMVFGVVTAIDLLNFVAAQERDQK
notes: The sense primer brings in an Nco I site at the 5' end; No fusion partner, E. coli lysate; Reported as a tetramer; also called pKK CBS Δ1-39
B7: human CBS deletion mutant Δ414-551 (enzyme)
chain: MPSETPQAEVGPTGCPHRSGPHSAKGSLEKGSPEDKEAKEPLWIRPDAPSRCTWQLGRPASESPHHHTAPAKSPKILPDILKKIGDTPMVRINKIGKKFGLKCELLAKCEFFNAGGSVKDRISLRMIEDAERDGTLKPGDTIIEPTSGNTGIGLALAAAVRGYRCIIVMPEKMSSEKVDVLRALGAEIVRTPTNARFDSPESHVGVAWRLKNEIPNSHILDQYRNASNPLAHYDTTADEILQQCDGKLDMLVASVGTGGTITGIARKLKEKCPGCRIIGVDPEGSILAEPEELNQTEQTTYEVEGIGYDFIPTVLDRTVVDKWFKSNDEEAFTFARMLIAQEGLLCGGSAGSTVAVAVKAAQELQEGQRCVVILPDSVRNYMTKFLSDRWMLQKGFLKEEDLTEKKPWWWHLR
notes: Lacks the entire C-terminal regulatory region; No fusion partner, E. coli lysate; Reported as a dimer
B8: human CBS deletion mutant Δ1-70 (enzyme)
chain: AKSPKILPDILKKIGDTPMVRINKIGKKFGLKCELLAKCEFFNAGGSVKDRISLRMIEDAERDGTLKPGDTIIEPTSGNTGIGLALAAAVRGYRCIIVMPEKMSSEKVDVLRALGAEIVRTPTNARFDSPESHVGVAWRLKNEIPNSHILDQYRNASNPLAHYDTTADEILQQCDGKLDMLVASVGTGGTITGIARKLKEKCPGCRIIGVDPEGSILAEPEELNQTEQTTYEVEGIGYDFIPTVLDRTVVDKWFKSNDEEAFTFARMLIAQEGLLCGGSAGSTVAVAVKAAQELQEGQRCVVILPDSVRNYMTKFLSDRWMLQKGFLKEEDLTEKKPWWWHLRVQELGLSAPLTVLPTITCGHTIEILREKGFDQAPVVDEAGVILGMVTLGNMLSSLLAGKVQPSDQVGKVIYKQFKQIRLTDTLGRLSHILEMDHFALVVHEQIQYHSTGKSSQRQMVFGVVTAIDLLNFVAAQERDQK
notes: The sense primer brings in an Nco I site at the 5' end; No fusion partner, E. coli lysate; Reported as a tetramer; also called pKK CBS Δ1-70
B9: human CBS deletion mutant Δ544-551 (enzyme)
chain: MPSETPQAEVGPTGCPHRSGPHSAKGSLEKGSPEDKEAKEPLWIRPDAPSRCTWQLGRPASESPHHHTAPAKSPKILPDILKKIGDTPMVRINKIGKKFGLKCELLAKCEFFNAGGSVKDRISLRMIEDAERDGTLKPGDTIIEPTSGNTGIGLALAAAVRGYRCIIVMPEKMSSEKVDVLRALGAEIVRTPTNARFDSPESHVGVAWRLKNEIPNSHILDQYRNASNPLAHYDTTADEILQQCDGKLDMLVASVGTGGTITGIARKLKEKCPGCRIIGVDPEGSILAEPEELNQTEQTTYEVEGIGYDFIPTVLDRTVVDKWFKSNDEEAFTFARMLIAQEGLLCGGSAGSTVAVAVKAAQELQEGQRCVVILPDSVRNYMTKFLSDRWMLQKGFLKEEDLTEKKPWWWHLRVQELGLSAPLTVLPTITCGHTIEILREKGFDQAPVVDEAGVILGMVTLGNMLSSLLAGKVQPSDQVGKVIYKQFKQIRLTDTLGRLSHILEMDHFALVVHEQIQYHSTGKSSQRQMVFGVVTAIDLLNFV
notes: No fusion partner, E. coli lysate; Reported as a tetramer

Target: the molecule itself
Test: self-association; native PAGE and Western blot of E. coli lysate soluble fraction
Protocol: Western blot analysis of crude cell lysates under both denaturing and native conditions was performed as described previously (Janosik, 2001, supra) with some modifications. Soluble fractions of E. coli lysates containing the expressed mutant proteins were mixed with sample buffer and run on a 6% native PAGE without a stacking gel. The final composition of the sample buffer was: 50 mM Tris-HCl, pH 8.9, 1 mM DTT, 10% glycerol, 0.001% bromphenol blue. Detection of heme was performed using a previously described method that relies on heme peroxidase activity (Vargas et al., 1993, Anal. Biochem. 209(2), 323-6).

Binding result, binds:
B1
B2
B3
B4
B5
B6
B7
B8
B9

Source: US20140023630A1 (REGENTS OF THE UNIVERSITY OF COLORADO A BODY CORPORATE, published 2014)
